The target in test [1] is full-length FLAG-tagged Orai1 purified from insect cells (human, UniProt Q96D31 1-301). The test can be described thus: pull-down.
For test [2], the target named is full-length FLAG-tagged STIM1 purified from insect cells (human, UniProt Q13586 23-685). The test can be described thus: pull-down.
Sequence of full-length FLAG-tagged STIM1 purified from insect cells (Q13586 23-685): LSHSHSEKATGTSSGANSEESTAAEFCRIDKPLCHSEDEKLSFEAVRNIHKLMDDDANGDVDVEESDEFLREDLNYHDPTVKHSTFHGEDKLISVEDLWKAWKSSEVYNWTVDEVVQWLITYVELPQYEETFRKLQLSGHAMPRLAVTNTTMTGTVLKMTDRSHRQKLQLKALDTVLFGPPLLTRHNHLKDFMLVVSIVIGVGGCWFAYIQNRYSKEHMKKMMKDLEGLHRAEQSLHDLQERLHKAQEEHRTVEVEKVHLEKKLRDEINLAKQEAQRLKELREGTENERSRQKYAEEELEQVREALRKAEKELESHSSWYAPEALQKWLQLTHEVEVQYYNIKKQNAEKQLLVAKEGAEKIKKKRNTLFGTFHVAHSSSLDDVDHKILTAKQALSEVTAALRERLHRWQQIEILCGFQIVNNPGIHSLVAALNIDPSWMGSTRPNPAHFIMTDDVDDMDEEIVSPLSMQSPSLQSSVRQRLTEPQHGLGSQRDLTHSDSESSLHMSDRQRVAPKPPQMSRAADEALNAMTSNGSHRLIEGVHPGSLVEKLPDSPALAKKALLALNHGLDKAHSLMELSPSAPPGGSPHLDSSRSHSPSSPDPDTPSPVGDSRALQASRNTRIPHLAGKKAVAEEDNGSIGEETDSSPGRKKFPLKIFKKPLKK

Sequence of full-length FLAG-tagged Orai1 purified from insect cells (Q96D31 whole entry): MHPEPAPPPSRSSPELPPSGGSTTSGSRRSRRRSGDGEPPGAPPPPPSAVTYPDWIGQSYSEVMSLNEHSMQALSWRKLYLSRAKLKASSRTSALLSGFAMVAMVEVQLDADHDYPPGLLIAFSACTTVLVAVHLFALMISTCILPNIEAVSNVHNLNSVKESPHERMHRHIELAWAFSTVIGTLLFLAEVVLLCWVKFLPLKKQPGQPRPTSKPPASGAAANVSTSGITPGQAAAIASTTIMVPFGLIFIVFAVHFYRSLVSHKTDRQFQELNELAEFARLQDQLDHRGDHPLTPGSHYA

B1: GST-fused STIM1 serine/threonine rich sequence (S/T) (domain or fragment)
chain: SSLDDVDHKILTAKQALSEVTAALRERLHRWQQIEILCGFQIVNNPGIHSLVAALNIDPSWMGSTRPNPAHFIMTDDVDDMDEEIVSPLSMQSPSLQSSVRQRLTEPQHGLGSQRDLTHSDSESSLHMSDRQRVAPKPPQMSRAADEALNAMTSNGSHRLIEGVHPGSLVEKLPDSPALAKKALLALNHGLDKAHSLMELS
With B1, the binding result in test [1] and in test [2] was “binds” each time.

Source of the values: article PMC2875865 (Nature cell biology, 2010).
